# A protein production outcome set (Wang et al. 2014)
# Test: label from the status in PepcDB records
row,Sequence,protein production
1,MNASTSPLPASDQTLRGILLICAAVFLFASHDGLSKFLSGFYPIVMVVWARYLVHTLLMVAVFVPRNGLAVIRSRRPLMQLARALCLIGTSLFFTTGLRYLPLAEATAVNFLAPLLVTALSVPLLKEKVSLGQWLAVLTGFIGVLFIVRPGGALFTPAALFPLGSALCFGLYQLLTRMLANSDSPTTSNFLAGIFNTLIMSLLVPFFWQTPSLLHGLMMIALGGCGMGGHLLLTQAFRHAPPATLAPFSYGQIIFAGLLGLLVFGHVPDAWALLGILVICASGLVVAWRRGR,failed
2,MNATHDLQSTPSRLRRFACMMYEGVLLFGVVFIASYLFDTLTQSKHGLMLRDGRQVWLFLVIGLYFVLCWRRRGQTLPMKTWNIRLVDRDGQPPSTPRLVLRYVLAWPLPLGAAALVWLASSLTGWRSVDMFIVLAPFAIFAWSWVDPDGQFLHDRLLGTRLRNAPPRAARAVAGT,failed
3,MNATLIDCCDPQKPSRVLFHFLILDAPSPSNLPTYIKELQHRGVRHLVRVCGPTYDATLVKSRGIDVHSWPFDDGAPPTRAVLDSWLKLLDTELARQQEDPSVPPPTIGVHCVAGLGRAPILVALALVEYGNVSALDAIALIREKRKGAINQTQMHWITKYKR,not failed
4,MNATSTAPSSRHTLRSLAGDVFELLGSMRFAVSLLMFICIASIVGTVLAQNRPSNVYVDQFGPFWFEVFDKFSIWHVYNSWWFLLIMTFLVVSTSVCLIRNTPKMLREARSFREHVRASSLRAFPHRLQTEVAQPVSETAQGVTGLLGQFGYAVRERRDGDGIMLAAKKGSANRLGYIFAHSAMVIICIGGLLDSEAPVRLQVLFDGKQPIAINGEMARADIPDSALLSVNNPSYRANLWVPEGSNASLATIAVNDRSLVQPLPFSLRLKKFTVDYYSTGMPSRFLSLVEVTDPETGEMFDQTIEVNEPLRYKGVTVYQSSFDDGGSSVSLTGYPLVGAGDTPFKVDGVVGQTSEIGARIGDQPKSMKIEFTALRVINVEDFSGGQPGAQNLSLREHVASVAGSAAGKKNENLRNVGPRIDYKLIDDAGQAHEFQNYMLPVVLDGVPVFLSAVRNNPADDFQYLRIPADDQGSLAEFMRLRAALADPAARQEAARRFAERNAPSGTDRQPLETAAQRALATFAEGGLQAIADFLQANTAPDDLERAAGIVVRLVGASVAELRDIARARAGLPALPQSGPQADEAAQWSRVAVAALSDLAFYPAPVMFSLTDFQERQGSVFQVARTPGKNAVYLGCVLLILGIFAMFYIRDRRVWVWVKPAADGAGSSIEAAMTSQKRTLDFNQEFDRLREALLRQSKP,failed
5,MNDDKDVVIDQIYYISTDPSATTYPTTFSVSLVDNSVAGRPFFYVVGKSTMRVDRNTTLRVEEDSKLVEKYNETYGKKYLPFPEGTYSFSTNEVTINQGDNFSSDTIFISFSNWDKLSKIDKYLLPVSLKAVDDKGAVSMDRNLIYFIADFSTTNTGYNKPAAWKPLDRTDWDVSFSYAYGYDEAQFGGRLAVDGDVSTTWFTWGVVSAGECWWATTLPAPTHLTGFSLTRQTTFGSSYNVREAKVKVKKEGDTEWTEAGLFRFGSFKGNDPQYAVFIPAVENVKEFRIDIVSPADFTGFAELDLYQLEHHHHHH,failed
6,MNDGDGTPAAAARERRFGPLGTALVIIPTYNEAENIKAIVTRVREAVPEAHVLVADDNSPDGTGKLADELAAADDHVQVMHRKGKEGLGAAYLAGFRWGLEHGYGVLIEMDADGSHQPEELPRLLTALKGADLVLGSRWVPGGRVVNWPKSREIISRGGSMYSRIALDLPLRDITGGYRAFRRETLEGLGLEEVASQGYCFQVDLARRAIKAGYHVVEVPITFVERELGDSKMSRDILVEALWRVTTWGVGERVGKVLGRDRRSGTAADGQTASSGTDGRTASSDRSTDSLDESAKASDAKA,failed
7,MNDIQQALQEALTHHQAGRLGEAKTLYDAILHAQPGQPDAMHFLGLLACQLKQYDAGLALMERSLAERPDASYFNNLGNMLRECGRLDDAIAHYRRAVALRPDYPEAHNNLGNALRDARDPAEAMRSCSRAIELRPGYAEAYNNLGNVLQDLGELDAAAASYGKAIAFHPAYAEAHSNLGNVLRAQERHADAIVHYRRAIELNPALRVAHRGLAIALRATDDFDGALEHARAGLEPDDAEGHCMLGRSLRSMNDFDGAARLFERACEIDPGYAPAWCRLGELRCQQGEYEESLRLCRHAIELDPELADAYNFLGLAYHNLDRMAASELSHRHAIDLNPDDADAHHNLAAALFRLDKLDEAMSEYRIAQELGVDPVKIQLTLGDILWAKRDFSGAVAAFREAVEHDPHRAYARLLFNMSSSPAFAPEEWVVDAQRYGDYLARDARLLSHDREQRARQARGRPLRVGFVSGDLRQHPVGIFLESVLAHLDRTRIEPHAYVTFVVEDDVTARLKTGFASWKKLTCLNRDQAARMIHDDGIDVLVDLAGHTNWSGLPVFAHRPAPVQASWLGFFATTGCRAIDYFIGDPHTLPADEAHHFVEQPWHLPDSYLCFTPPAYDVAVGPLPMATNGGVTFGCFGKLTKISDDVIALWSRLLHALPDARLMLKAHELGASDLNRATLERFARHGIGAHQLILEGGSPRAEYFNAYNRIDIALSPFPYPGGTTTAEALWMGVPVIGMKGGRFVTHICESLLHAAGMGDWIAADEDAYLAKAIAFAGDRDALAALRATLRERTLASPLCDAARFARNLEDAFHGMWARYVAGDTDGART,failed
8,MNDISVSADRHAIERGSFNGNAKEYFGIWIVNILLTIMTLGIYSAWAKVRRKRYFNGNTLLAGRAFGYHATGGQIFKGRLIAFAFIVFSQLVGLIHPFLVFAPTILLLIFLPWVITRSIRFNARVTSYRNVRFDFVGTAWGAFVSILLGSFVALLSIGILAPLASRWANRYIVSNLHYGDRRFSTDPKIGALYRAWIIPALLVVVGGVLAVFLLIFLAMVLVQAAGIGSRELATAPENYEIVTLFGLGQILINLLVAMLIYGFASTVYKAGVRNVVVSSTLLDGKHELHSDLHRGRYLWIVFSNLIVTIFTFGLMRPWAAVREAQYAVERMGISFKGDMGEVLSSMEATGAAVSAEYMDMEGFEFGF,not failed
9,MNDQVLRTQTDRRQLQQIIAGLTEGVILIEPDQRILWANEAALAMHGVDSLEGLGADTGEYRERFRLRYRNNHPLQEGQYPAERLVAGECFSDVVVEVFPAADEDTRWVHRVRGLVLTTPEDKPDCLVLILHDAT,not failed
10,MNDRPNNYILTRESGFKVITELTKGQNCNGAETHPINGELYFNSWNAGQVFRYDFTTQETTPLFTIQDSGWEFHIQFHPSGNYAYIVVVNQHYILRSDYDWKTKRLTTPYIVCGQQGAKDWVDGVGKKARMHAPRQGTFVKNPAYKGSSDEYDFYFCDRENHCIRILTPQGRVTTFAGRGSNGTSGYNDGDLRQEARFNHPEGIVYDEERECFFIGDRENRRIRKIGLEHHHHHH,not failed
11,MNDTYQPINCDDYDNLELACQHHLMLTLELKDGEKLQAKASDLVSRKNVEYLVVEAAGETRELRLDKITSFSHPEIGTVVVSES,not failed
12,MNEKVYYFIKSYDDSLPMPPAESFGQILNETYLHPFDWSARTTRKSYWWSVLINFILSILCIVLGFYAFNKNINPGIRVIDAVVAIVVYLWVFLAGLGQMVRRLHDVGYSGYWYWSTFTGYGTMFLFYLALQPSAQRKVKWGKYLFSDQDYPEGKKEKVPVPTIGQILKEHFFDCFNWDARSTRTSFWVGTAINQVVMVIGVLACYLIAFLLFLPFRVTGLNSDDSKVIAVFFIIFLIFFAAVTIWAFLAQLGHTVRRLHDAGFNGGWWWLSVIPYVGQLLLAFLLFHPTVKNEVKWNKYLFDPEDRIR,failed
13,MNELLLITFSPLVAGVLAWLVRIRGVRESLGILGAIVPLAFLIKLYPSLDHPIRATISLGGFELGFSMSHLNWVFSMIAAVVGLSAVFGMASTAKDSYEWLFSLMSLTGALGIFMAQDLVTFFIFWEVMTFSSFMMVLKFNRAASLKYLILSIIGAYSMLVAIGIIYAKTGTFTFADISAFFRKEAMLAMLGGKSTFSRFDMALIYLLFLMAFGVKAGMFPLHVWAPDAYSETDQSYTAIFSGVLSKTGVYGFILLYVLMYGKLLIDLGQFKGTPLFGYIIAFLGGLTIIIGGVLAALQEDIRKLFAYSSISQVGYILVGLGIGTSLGIEAAIYHAISHALFKGLFFLVVATIIYRTGKTEFKDFGGLAEKMPFTFAMAFIAILSLAGIPPLVGFASKWLIFEAVISQKLPILGGMLFFGSAIGFVYLIRFTYAVWFGQRPSDIEDTKDAPLPLAIGMGILGTLNVVFGVAPGLVAKELNAIFGNPVIGGNIWELDLGFGRYNALLVAIWLVIGVLIAAILYFLGASTRKVPVTDTYQSGNPVTMEYNLTIRRNFFLPLKETMAFWLRISFDKLYKDTWKAIEDFAETARNYIYNGNVQAYAWYLAIILLILAAMGV,failed
14,MNEPLHLYVHIPFCLKKCRYCSFVSRSDAPLAIDDYASLVAREMEMRVAAANPLPLSPATTLYLGGGTPSLLSPAALERIIDAAARSYGLGPGAEITLEANPGTVTFQRLADFRSAGVNRLSLGVQSFDDGMLVLLGRLHTARQAREAVAATRRAGFDNIGIDLIHSLPGQTPDQWREQLACAVALNPDHVSAYGLTVEEGTPFAAMEERGELVLPDEEQSALMFEATTDVLVSAGFEHYEIANFARPHRRSRHNQVYWLRRNYLGFGAGAHSFLRAPAFGVRWKNTDDLELYRDTLAAAELPGEERTVLSRADAMAEFFFLGLRLLDGVREEDFVREFGDTMENVYGREMERLCSAGLLMREGGRLKLSRRGVILANRVFASFL,failed
15,MNEQIDPFYEAKQEVDISVNKLQSLYNNWNNIPDKSSISAREKYNLIKEEIKYLNEDLNDLDNSVNIVKKNSYKFNISSQEIEERTQSLRIIRNLLNEITNNINNNVLSYNNNTNNDYNSVILKRQDNDLEELAESAERLHHAAITINTELKDQQKLLDELENEMDISSNEYKMDIYSIYIFVYFEFS,failed
16,MNESAGGRTPVPPAAWVFGLSTLIPFFIASGLFCYGPVAIRKSALLGLLAYSAAMVSYFGGVRTGLEIENPSPRWSVLGISLLFPLAGFGLLLGGLKFEAAWQLSGFLLVFLLQWVWDVTDHEGPSWRPRMRTLMTAGAAISLAFALEQALHM,failed
17,MNEYFFPKLTAVEALAPYRLRTTWSTGEVLEVDVGDILRKIPDLAPILDPEAFARVHIAEWEGSVEWFDTEFGRDNVYAWAKEQAGEVSHEMFGDWMHRNNLSLTTAAEALGISRRMVSYYRTAHKIIPRTIWLACLGWEATRPETKTLPRTLPAAYAKGVSASLS,not failed
18,MNEYQIKFKEDCYYAENNAGKVIGELLYSKIKQGKVISINQVRVDPLFRNRGIAGKLLKKAVDDAVKNGQLIKAVCSFSKKAFLQNKNYQKYEYKEN,failed
19,MNFDSYIFDFDGTLIDTTTCHVKATQSAFKRLNLDEPTEQAILHTYHLNLYNNFKALASHELSFYQIEKLIDEYNHCFSNDEIHQSKEYTGISEVLKFLHNQKKKIFVVSNKETLTTQKYLDYLGLSRFITDSLGVCIKNEDKLLCETIQNLIQKHHLMIGKTVYIGDTAQDIKSANQAHVQTCAVTWGAQSAHELLHEDPHYVVNDPEEFLTIL,failed
20,MNFEGIIIAAISFFIIGIFHPIVIKLEYYLTKNIWPLFLILGIIFIIISLFQKQTVAAAIMGIIGATCIWSIKEIFEQEKRVQKGWFPKNPRKK,failed
21,MNFFKILLMELRAIVSHKGVLLILIGAPLIYGLLYPLPYLRDIVTQQKIALVDEDNSFLSRQLAFMAQSSNELEIAFFSPSMLEAKKLLKEEKIYGILHIPSHFEANIHKQVPVTIDFYANSNYFLIYGALANAVVESINALNDEIRFKRNAQIEEAELGTDGIKIRPIALYNPSEGYLNYALSSVFIFILHQVMLIASSMFTSSRRLELALLDRKQIALRLCTRLLVFMGAFSVFILWYFGALFSFYGIERHGSALMVFLNSLIFMLATLSLGSFLGAWIKNEAHTTQIVLISSLPLIFMMGFVWPFESLPSYLQVFVQIVPAYHGISLLGRLNQMHAEFIDVSFHFYALIAIFIASFIGSVFKLSSLKKACENA,failed
